Laboratory results from article PMC3895837.

Target: T1, Siglec-5 (Sialic acid-binding Ig-like lectin 5) (human (NB4 AML cell line)) (UniProt O15389)
T1 sequence: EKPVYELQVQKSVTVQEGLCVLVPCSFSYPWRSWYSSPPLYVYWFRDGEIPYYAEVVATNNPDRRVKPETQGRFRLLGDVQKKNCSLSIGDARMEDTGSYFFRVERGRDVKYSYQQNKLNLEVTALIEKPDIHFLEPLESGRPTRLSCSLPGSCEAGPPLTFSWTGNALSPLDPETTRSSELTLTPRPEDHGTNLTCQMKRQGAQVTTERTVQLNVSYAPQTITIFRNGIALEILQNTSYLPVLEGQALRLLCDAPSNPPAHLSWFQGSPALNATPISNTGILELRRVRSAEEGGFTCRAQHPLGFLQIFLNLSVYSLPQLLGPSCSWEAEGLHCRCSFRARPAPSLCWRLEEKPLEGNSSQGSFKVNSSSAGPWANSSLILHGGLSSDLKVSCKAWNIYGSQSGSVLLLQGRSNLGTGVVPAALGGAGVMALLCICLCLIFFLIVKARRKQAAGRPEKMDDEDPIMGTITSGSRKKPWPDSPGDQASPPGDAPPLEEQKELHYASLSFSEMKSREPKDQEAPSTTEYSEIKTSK
Assay: flow cytometry on NB4 cells
Details: PBS with 4.5 g/L glucose, 5 mM MgCl2, 0.1 mg/ml yeast tRNA, 1 mg/ml BSA (0.1% NaN3 for flow cytometry), on ice 30 min; pH not stated; JH6 and JH19 (whole-cell …)

“GACGCTTACTCAGGTGTGACTCGAAGGGGTTGGGTGGGTTTATACAAATTAATTAATATTGTATGGTATATTTCGAAGGACGCAGATGAAGTCTC [K19]” showed a Kd of 12.4 nM.
